For experiment [1], the target named is T1, human factor B (purified, Complement Technology A135) (human, UniProt P00751 26-764).
T1 construct: also called fB; human complement factor B
The experiment is described as follows: SPR (Biacore), CLS012 captured on anti-Fc surface, soluble factor B 3.1-200 nM flowed; Chi2 6.74, fitted lines depart visibly from the data (the text calls the fits poor). The source says: (§1) Binding kinetics of mAbs were further characterized using Biacore's Surface Plasmon Resonance (SPR) technology (GE Healthcare, Piscataway, N.J.). For a detailed description of SPR and its applications in affinity measurement, please see Karlsson and Larsson, Antibody Engineering: Methods and Protocols, Methods in Molecular Biology (2003), 248: 389-415. In one exemplary experiment, TA106 Fab and derivative mAbs were captured on chips of a Biacore 3000 analyzer and samples of human factor B of different concentrations were flowed as the antigen over the surface to model soluble human factor B binding, using protocols recommended by the manufacturer (e.g., in the product brochure #BR-9003-31). All these referenced publications are hereby incorporated by reference in their entirety. […] Fab TA106 (Xoma, Lot#TTA1007, 20 mg/mL) was then flowed over one flow cell, followed by injections of human factor B on both flow cells. Concentrations (factor B) between 3.1-200 nM were run. The surface was regenerated between each cycle. […] The affinities of mAbs, i.e., CLS011, CLS012, and CLS013, were determined using a similar capture approach. In one exemplary experiment, human anti-Fc antibody was amine coupled to two flow cells of a CM5 chip. Each of the TA106-originated mAbs was then flowed over one flow cell, followed by injecting human factor B (3.1-200 nM) on both flow cells. […]

Experiment [2] addresses T1, human factor B (purified, Complement …). The experiment is described as follows: cell-based or functional assay.
For experiment [3] the target is unchanged. Kind of experiment: SPR (Biacore 3000), mAb captured by anti-Fc antibody on CM5 chip, soluble human factor B 3.1-200 nM; filing calls this value not reliable (poor fits); poor fits; patent calls the value not reliable.
From the text: as §1

The target is the same in experiment [4]. The experiment is described as follows: SPR (Biacore), human factor B directly coupled to CM5 chip, Fab flowed at 0.19-25 nM. The source says: (§2) Binding kinetics of TA106 Fab and variant S33A Fab (CLS016) were further characterized using Surface Plasmon Resonance (SPR) technology. In one exemplary experiment, both Fabs were captured on chips of a Biacore 3000 analyzer and samples of human factor B of different concentrations were flowed as the antigen over the surface to model soluble human factor B binding, using protocols recommended by the manufacturer and described previously in the instant disclosure. […] In another exemplary experiment, the affinities of both Fabs were also measured by reversing the orientation of the previous experiment. Specifically, human factor B was directly coupled to one flow cell of a CM5 chip. The second flow cell was used as a blank reference with no coupled ligand. CLS016 or TA106 Fab was then flowed on both flow cells. Concentrations between 0.19 to 25 nM were run with duplicates. The surface was regenerated between each cycle.
Background: SPR reads the build-up and loss of mass on a sensor chip optically.

Experiment [5] shares this target. Kind of experiment: BLI (Octet), biotinylated factor B on streptavidin biosensor, Fab at 100 nM. The protocol:
(§3) Binding kinetics of TA106 and TA106 S33A Fab (CLS016) to Factor B were analyzed using a FortéBio® Octet® biosensor (FortéBio, Inc.) in a similar protocol as described previously. In one exemplary experiment, Factor B (Complement Technology) was biotinylated at a 1:10 ratio and coupled to a streptavidin biosensor at a concentration of 5 μg/mL for a loading time of 600 seconds. Biosensors were briefly dipped in 1×KB as a wash for 30 seconds. Associations with a titration series of Fab with a concentration range from 100 to 3 nM (diluted in 1×KB) were carried out for 600 seconds. Fabs were dissociated from the biosensor by immersing the biosensor in 1×KB during the 600 second dissociation phase. As depicted in FIGS. 19 and 20, both TA106 Fab and TA106-derivative S33A Fab (CLS016) bound to Factor B at various concentrations, resulting in nearly identical association and dissociation profiles. Kinetic assessments using partial local fit parameters yielded identical values for KD/kₐ/Kd at each concentration tested.
In general terms: Biolayer interferometry detects binding as a change in optical thickness at a sensor tip.

The target is the same in experiment [6]. The experiment is described as follows: BLI (Octet), biotinylated factor B on streptavidin biosensor, Fab at 25 nM. The method, then: as §3
For experiment [7] the target is unchanged. Kind of experiment: SPR (Biacore 3000), Fab captured on chip, soluble human factor B 3.1-100 nM.
From the text: as §2

Experiment [8] has the same target. Kind of experiment: SPR (Biacore), factor B coupled to the chip, free CLS016 Fab 0.19-25 nM flowed; Chi2 0.121.
From the text: as §2

Experiment [9] has the same target. Kind of experiment: BLI (Octet), biotinylated factor B on streptavidin biosensor, Fab at 6.25 nM. The method, then:
as §3

Experiment [10] shares this target. Kind of experiment: SPR (Biacore), factor B coupled to the chip, free CLS016 Fab 0.19-25 nM flowed; Chi2 0.121 (the text rounds to 3.4 nM).
From the text: as §2

The target is the same in experiment [11]. Kind of experiment: BLI (Octet), biotinylated factor B on streptavidin biosensor, Fab at 12.5 nM. The method, then:
as §3

Experiment [12] has the same target. Kind of experiment: BLI (Octet), biotinylated factor B on streptavidin biosensor, Fab at 3.13 nM. The method, then: as §3
The target is the same in experiment [13]. Kind of experiment: SPR, factor B on surface, Fab flowed (summary table).
From the text: as §2

Experiment [14] has the same target. The experiment is described as follows: SPR (Biacore), CLS016 Fab captured on anti-Fab surface, soluble factor B flowed; Chi2 0.155.
From the text: as §2

Experiment [15] has the same target. Kind of experiment: BLI (Octet), biotinylated factor B on streptavidin biosensor, Fab at 50 nM. The method, then:
as §3

The target is the same in experiment [16]. Kind of experiment: BLI (Octet), binding to factor B (summary table). The protocol: as §3

Data on two molecules can be found in patent publication US20150166643A1 (Alexion, published 2015).

T1 sequence (P00751 26-764): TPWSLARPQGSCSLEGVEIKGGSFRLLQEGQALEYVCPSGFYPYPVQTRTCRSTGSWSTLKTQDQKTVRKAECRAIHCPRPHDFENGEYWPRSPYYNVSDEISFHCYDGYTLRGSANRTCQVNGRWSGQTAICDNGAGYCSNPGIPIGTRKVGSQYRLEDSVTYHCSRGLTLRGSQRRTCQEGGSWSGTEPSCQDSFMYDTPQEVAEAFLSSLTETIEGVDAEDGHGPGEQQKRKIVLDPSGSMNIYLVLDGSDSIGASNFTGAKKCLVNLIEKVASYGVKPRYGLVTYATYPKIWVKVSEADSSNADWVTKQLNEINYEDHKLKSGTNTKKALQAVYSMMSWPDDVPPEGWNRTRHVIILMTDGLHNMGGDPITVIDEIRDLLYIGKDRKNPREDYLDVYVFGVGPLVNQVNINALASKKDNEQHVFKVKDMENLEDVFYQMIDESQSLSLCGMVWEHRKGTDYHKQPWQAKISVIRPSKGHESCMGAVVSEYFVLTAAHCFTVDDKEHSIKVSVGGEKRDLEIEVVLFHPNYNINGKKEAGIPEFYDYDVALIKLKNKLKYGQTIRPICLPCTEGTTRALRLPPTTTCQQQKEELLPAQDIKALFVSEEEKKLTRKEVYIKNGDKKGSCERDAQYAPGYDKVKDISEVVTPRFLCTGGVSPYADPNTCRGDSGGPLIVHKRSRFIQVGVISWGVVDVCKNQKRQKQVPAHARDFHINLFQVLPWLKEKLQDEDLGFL

B1: CLS012 (TA106-derivative N31Q variant, full-length IgG2/4 mAb, expressed in CHO cells) (antibody, V domains shown)
VH: EVQLVQSGAEVKKPGASVKVSCKASGYSFTDYYMTWVRQAPGQGLEWMGWINPNSGGTKYAQKFQGRVTMTRDTSISTAYMELSRLRSDDTAVYYCARGYYANSAWFAYWGQGTLVTVSS
VL: DIVMTQSPDSLAVSLGERATINCKSSQSLLQSSTSKNYLAWYQQKPGQPPKLLIYWASTRESGVPDRFSGSGSGTDFTLTISSLQAEDVAVYYCKQVYNLPWTFGQGTKLEIKR
modifications: N-linked glycans on the heavy chain constant region
notes: Human IgG2/4 full-length mAb; also called CLS012 mAb; TA106 variant N31Q
Turning to B1, in [1], the koff was 0.00422 s⁻¹ and the kon amounted to 366000 M⁻¹ s⁻¹. The “IC50 (read off the curve); lysis of rabbit red blood cells in 10% normal human serum” value in [2] was approximately 20 nM. The molecule further came in with a Kd in experiment [3] of approximately 11.5 nM.

B2: CLS016 (TA106-derivative S33A variant, IgG1 Fab, expressed in CHO cells) (Fab, V domains shown)
VH: QVQLVQSGAEVKKPGASVKVSCKASGYSFTDYYMTWVRQAPGQGLEWMGWINPNSGGTKYAQKFQGRVTMTRDTSISTAYMELSRLRSDDTAVYYCARGYYANSAWFAYWGQGTLVTVSS
VL: DIVMTQSPDSLAVSLGERATINCKSSQSLLNSATSKNYLAWYQQKPGQPPKLLIYWASTRESGVPDRFSGSGSGTDFTLTISSLQAEDVAVYYCKQVYNLPWTFGQGTKLEIKR
notes: IgG1 Fab of the S33A variant, made in CHO cells; also called TA106 S33A Fab; TA106-derivative S33A Fab
For B2, the Kd in experiment [4] was approximately 3.4 nM; in [5] it was 13 nM; in [6], 22.2 nM; in experiment [7], approximately 32.8 nM; in experiment [9], 41.9 nM; in experiment [10], 3.37 nM. Also, the Kd is 31.4 nM in [11]; 28 nM in [12]; 2.6 nM in [13]; 21.5 nM in [15]; 20 to 30 nM in [16]. Moreover, the off-rate constant (koff) in experiment [5] worked out at 0.00438 s⁻¹; in experiment [6], 0.00392 s⁻¹; in experiment [8] it was 0.00466 s⁻¹; in [9] it was 0.00322 s⁻¹; in experiment [11], 0.00353 s⁻¹; in experiment [12], 0.00244 s⁻¹. For the same molecule, the results for the koff in [14] and in experiment [15] were 0.00429 s⁻¹ and 0.00412 s⁻¹, respectively. Moreover, the kon worked out at 338000 M⁻¹ s⁻¹ in experiment [5]; 177000 M⁻¹ s⁻¹ in [6]; 1.38e+06 M⁻¹ s⁻¹ in experiment [8]; 76900 M⁻¹ s⁻¹ in experiment [9]; 112000 M⁻¹ s⁻¹ in experiment [11]; 87300 M⁻¹ s⁻¹ in experiment [12]. The kon in experiment [14] was 131000 M⁻¹ s⁻¹; in experiment [15], 192000 M⁻¹ s⁻¹.

By koff is commonly meant the rate constant with which the complex falls apart. Read a high koff as a short-lived complex. For orientation: kon means the second-order rate constant of association. A high value points to fast association. In general, Kd refers to the concentration at which binding is half-saturated. A high value points to lower affinity.
